T1: ZNF143 DBD (UniProt P52747 237-440)
T1 sequence: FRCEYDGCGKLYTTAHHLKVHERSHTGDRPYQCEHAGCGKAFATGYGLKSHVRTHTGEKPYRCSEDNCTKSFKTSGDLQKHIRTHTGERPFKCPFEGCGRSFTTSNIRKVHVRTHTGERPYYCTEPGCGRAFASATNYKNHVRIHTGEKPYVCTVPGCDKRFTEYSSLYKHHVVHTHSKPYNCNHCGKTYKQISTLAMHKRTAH


Molecular target: T1, ZNF143 DBD
Assay: EMSA; 20 fmol 32P probe; 4% native PAGE in 0.25x TBE; competition: 20 min preincubation at room temperature, 10 uL; buffer as in ref 33 (not given); competitor excess 200-fold (Methods) or 1000-fold (Fig 2E legend)
Details: protein: recombinant, blunt

Binder	binding result (label: 5' 32P)	binding result
mut SBS/B- (dsDNA) DNA 1: CGATTACCATGCACCAGGACAGG DNA 2: CCTGTCCTGGTGCATGGTAATCG	no binding	–
SBS/B (dsDNA) DNA 1: TGTCCTGGTGCATGGTGGTCGGA DNA 2: TCCGACCACCATGCACCAGGACA	–	binds
mut SBS/C- (dsDNA) DNA 1: GTTTTTAAAACGTGTGCATTATTCTCC DNA 2: GGAGAATAATGCACACGTTTTAAAAAC	no binding	–
SBS/C (dsDNA) DNA 1: TTTTACCCAGTGTGCATTATTCTCC DNA 2: GGAGAATAATGCACACTGGGTAAAA	–	binds
SBS/A (dsDNA) DNA 1: CAGCCCAATGGAAGCTGGGGGCG DNA 2: CGCCCCCAGCTTCCATTGGGCTG	no binding	–
